Target: SARS-CoV-2 BQ.1 Spike antigen (SARS-CoV-2 Omicron BQ.1)
Assay: cell-based or functional assay

B1: Parental mAb 2 (antibody, V domains shown)
VH: QMQLMQSGAEVKKPGASVTVSCKASGDTFSDYRIHWVRQAPGQGLEWMGRMNPKSGDTNFAQKFQGRVTMTRDMSINTAYMTLSGLTFDDTALYYCASLLIVGGFDPLDDFEVWGQGTMVTISS
VL: QSALTQPPSASGSPGQSVTISCSGTSSDVGGYNFVSWYQHHPGKAPKILIYEVTKRPSGVPDRFSGSKSGNTASLTVSGLQAEDEADYYCSSYGGTNNLLFGGGTKLTVL
In the case of B1, the Pseudovirion neutralization IC50 is reported as 10.1 µg/mL.
